Test results from the supplement of paper PMC10724198.
± gives the standard deviation of the averaged measurements.

Tested on: Saccharomyces cerevisiae
Test: protein stability index of tFT-peptide fusion (C-terminal peptide) (PSI (0-1 scale)); higher = more stable (slower turnover)
Conditions: genetic background: wild type; temperature: 30 C
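Further: PSI is a weighted mean of sequencing reads over stability bins, variants kept only with over 10 reads, mCherry proximal and sfGFP distal, peptide attached via GGGS linker.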

In order of falling protein stability index:
1. SPPRATVRPTSP  0.824 ± 0.078
2. SRPRSPPPPPIT  0.819 ± 0.054
3. SRRLQSPVRVVT  0.773 ± 0.15
4. SRLLPPLPPLSP  0.767 ± 0.097
5. SNERWCGCGLLW  0.764 ± 0.0097
6. SRKCLPPLQLWS  0.759 ± 0.067
7. SRGVLLCHCSIA  0.758 ± 0.12
8. SLPPHPAPPPAA  0.757 ± 0.014
9. SSFLSFSSGCQS  0.757 ± 0.045
10. SPSLSFVFPVSL  0.756 ± 0.039
11. SRPLPPSLPPPP  0.756 ± 0.0098
12. SSVRIGRNLYVW  0.754 ± 0.13
13. SPPSHPHRPTFP  0.753 ± 0.28
14. SSPPAPHGAHPP  0.752 ± 0.0099
15. SLPLIPCPSPPL  0.751 ± 0.065
16. SPSYACLPPPIP  0.7461 ± 0.0032
17. SRRRSPARPSLP  0.7462 ± 0.0045
18. SLGVPVVWGLWI  0.744 ± 0.032
19. SSDSYANLNWVI  0.741 ± 0.038
20. SRFLPPSHLLPP  0.738 ± 0.093
21. SPCLLPPPRSSP  0.737 ± 0.027
22. SSCLDAHPPSSS  0.736 ± 0.072
23. SPRPSVLPPLSL  0.734 ± 0.011
24. SNPGGYCPQGVP  0.731 ± 0.024
25. SSLPAPSPVPSP  0.731 ± 0.081
26. SLPPLDTPPSSC  0.73 ± 0.14
27. SNVRSRGAGISM  0.729 ± 0.087
28. SRRRVTSCTARG  0.729 ± 0.018
29. SPRISSCSPFDS  0.726 ± 0.036
30. SRPPAPPPLPAP  0.726 ± 0.025
31. SSPRANAYASCP  0.726 ± 0.16
32. SRRENEVIGGAE  0.725 ± 0.068
33. SPCARPPPFPAR  0.724 ± 0.034
34. SPSFPPHRPPQH  0.724 ± 0.066
35. SRSKVVVHNSYW  0.724 ± 0.14
36. SLPLPNTPVPPI  0.723 ± 0.081
37. SPPPARLLPPPS  0.723 ± 0.12
38. SSSLRLCSCAGQ  0.723 ± 0.049
39. SLSRSFCRAHRS  0.722 ± 0.047
40. SPARPPFPPPPL  0.72 ± 0.029
41. SLILSAGLGFFF  0.719 ± 0.095
42. SQAFPPADLRPR  0.719 ± 0.058
43. SPFSPTAPPPPP  0.718 ± 0.017
44. SPLLPFPLPPSI  0.718 ± 0.018
45. SRAIEPSEFSVA  0.715 ± 0.055
46. SSLLSLAFFAPS  0.7147 ± 0.0056
47. SSRWSMEHMAAW  0.715 ± 0.059
48. SSSLLFVLGPSW  0.715 ± 0.034
49. SNLRSPFPSLPL  0.714 ± 0.022
50. SPRYLLFSLRSP  0.714 ± 0.11
51. SPSSSPLSPFPL  0.713 ± 0.084
52. SRGRAGESRPRG  0.712 ± 0.069
53. SSNSSFFIWGLV  0.7119 ± 0.00078
54. SLQPRRGQPVTG  0.711 ± 0.0078
55. SPSLPQLLDPPS  0.711 ± 0.011
56. SPPSPLSLPLPS  0.707 ± 0.014
57. SRPTSGPPQPPL  0.707 ± 0.022
58. SRSISCPVLSKI  0.707 ± 0.017
59. SRSETIQTGIGW  0.706 ± 0.012
60. SLRICGAFPRTF  0.705 ± 0.0092
61. SSSACNMPVVRL  0.705 ± 0.05
62. SLSPPSSPLPPP  0.703 ± 0.053
63. SSPPAPHLAPPP  0.703 ± 0.053
64. SSCLRQGVGACG  0.702 ± 0.018
65. SSENIQLADQLR  0.702 ± 0.046
66. SSRTFRFRPPTI  0.702 ± 0.01
67. SSVRPHPAPPHT  0.701 ± 0.01
68. SRVPTSRARKRS  0.7001 ± 0.0042
69. SSLQGSCPSKSL  0.7 ± 0.044
70. SSPPPPALPEYQ  0.699 ± 0.0082
71. SSVYLRRSCDHD  0.699 ± 0.017
72. SNRRSSRSLYYM  0.698 ± 0.033
73. SPPPLPHPPAAS  0.698 ± 0.023
74. SPPPPRAPTPPP  0.698 ± 0.035
75. SPVPVTFSLLTR  0.698 ± 0.0082
76. SRRSCTLLSTTW  0.698 ± 0.022
77. SPSTSPPPSSSS  0.697 ± 0.042
78. SSLPPPRLFLLP  0.697 ± 0.085
79. SSRLVFFLPSLR  0.6966 ± 0.0022
80. SSGKRANINKNK  0.695 ± 0.022
81. SPPPTPPGLLLL  0.694 ± 0.012
82. SSWEMMLYRLTE  0.693 ± 0.021
83. SLPPPSSPPPPL  0.692 ± 0.089
84. SPLLFLLPPAAP  0.692 ± 0.062
85. SRASTGPPPPGT  0.692 ± 0.026
86. SRPPPPSIYLSI  0.6912 ± 0.0021
87. SPTPLDPLRAPL  0.6902 ± 0.0027
88. SSNRKLVRLASS  0.69 ± 0.084
89. SLWLRLAIPSRY  0.68862 ± 0.00061
90. SPRVKEVSREIR  0.689 ± 0.045
91. SSRPLYLFSALR  0.689 ± 0.053
92. SSTALAFAPYLL  0.6894 ± 0.005
93. SSVSARHVPCSP  0.689 ± 0.027
94. SLLRPPHASFSS  0.688 ± 0.044
95. SPPPPLTSLVPP  0.688 ± 0.075
96. SSFLLGCAFPLG  0.688 ± 0.0075
97. SSSVLPESFSPS  0.687 ± 0.036
98. SPHPLLSSPPPA  0.686 ± 0.075
99. SPSPPLPFSRPP  0.686 ± 0.044
100. SPWLSSRFRVPR  0.686 ± 0.021
101. SSFSACPTKIII  0.686 ± 0.048
102. SPPPSPAPPPPP  0.684 ± 0.083
103. SPVRLSSVPRPY  0.683 ± 0.019
104. SNLPVSSLPSLS  0.6818 ± 0.0048
105. SPFLTPPPPRPA  0.682 ± 0.024
106. SPPFLPPLITFP  0.681 ± 0.023
107. SPPPPPLPPAYL  0.681 ± 0.012
108. SPSPHPQPLIPL  0.681 ± 0.03
109. SRACTRRSHTLE  0.681 ± 0.032
110. SRPLQPLHQPKY  0.681 ± 0.052
111. SSGVCSGTSALN  0.681 ± 0.033
112. SPPPLPPPPPSP  0.68 ± 0.036
113. SQLKHLPPDREC  0.679 ± 0.016
114. SRSSPLYRRGVR  0.679 ± 0.089
115. SPAGGPRGGEGV  0.678 ± 0.075
116. SLPRPPRPPQSH  0.677 ± 0.038
117. SSVSRIYTPSSL  0.677 ± 0.12
118. SPFPPLPSRPPP  0.676 ± 0.0097
119. SPPAALLPLFLR  0.676 ± 0.051
120. SPPPRSPRPFPG  0.6757 ± 0.0012
121. SRRGARRHVRLK  0.6757 ± 0.00074
122. SPPSFLPLPLPS  0.675 ± 0.033
123. SSTEYYDIRKIR  0.675 ± 0.025
124. SPAGGPSGGEGV  0.674 ± 0.062
125. SSEECYDTKGEL  0.674 ± 0.027
126. SSHWGRSRLASG  0.674 ± 0.1
127. SSPIRPFLPPGY  0.6709 ± 0.0049
128. SLPFSPSFLSSF  0.67 ± 0.015
129. SPRVSRRVLPSF  0.6696 ± 0.0027
130. SMSEYGLLTMLE  0.669 ± 0.011
131. SSLTTCFLSFPP  0.668 ± 0.066
132. SPLPADSHPLPP  0.667 ± 0.015
133. SLLSLPPSRAPS  0.666 ± 0.022
134. SNIKEYKSINGR  0.666 ± 0.02
135. SLLTLVIPTLFS  0.665 ± 0.0048
136. SLPPSRSPSPTL  0.665 ± 0.13
137. SSLVRFDSSAPL  0.665 ± 0.033
138. SPPRPSSPRASP  0.664 ± 0.074
139. SPVPLPPPLPSL  0.664 ± 0.023
140. SRPVSSFPPPLR  0.664 ± 0.071
141. SSIVGRLLSTNT  0.664 ± 0.071
142. SPPTEPFPDPTH  0.6628 ± 0.0053
143. SRRVSLGLSVDS  0.662 ± 0.074
144. SLSLFYFRFFPF  0.661 ± 0.05
145. SPMELEHSSAVP  0.6605 ± 0.0046
146. SSSYCHPSCVSC  0.661 ± 0.14
147. SNKDLELVSTVC  0.658 ± 0.002
148. SPPPTSQHSGPP  0.657 ± 0.042
149. SLPDSLPRPPPS  0.656 ± 0.072
150. SPPPPPLPPPHP  0.6564 ± 0.0035
151. SRRSVVRPPCIG  0.656 ± 0.056
152. SLRRPPPRSRNG  0.654 ± 0.048
153. SPIIVCLFDLGF  0.654 ± 0.037
154. SPQRAHLHHHPT  0.654 ± 0.026
155. SPSPPPASPPAP  0.654 ± 0.14
156. SSSCRPVSSAIV  0.651 ± 0.089
157. SLKELSYKGTLR  0.65 ± 0.038
158. SMRFLGIKLKKY  0.648 ± 0.023
159. SPPAPLPPPLPR  0.648 ± 0.025
160. SPSHSVSGPLSF  0.648 ± 0.014
161. SRFVRNRYGRVV  0.648 ± 0.027
162. SRPLPLPPRPLP  0.647 ± 0.023
163. SRTLYERTRFVL  0.647 ± 0.018
164. SSLLLPALSPSV  0.647 ± 0.077
165. SPCRSPPPDLPQ  0.645 ± 0.1
166. SRRGFTHDGLKD  0.645 ± 0.032
167. SLQRLFGRGGMV  0.643 ± 0.1
168. SMASQLSQRGSD  0.641 ± 0.076
169. SPPLPPLGFNPP  0.6414 ± 0.0025
170. SSTFPRPSLRPV  0.64 ± 0.091
171. SSDFTSRHTRPP  0.639 ± 0.035
172. SPASIVPTLELA  0.638 ± 0.024
173. SRCGSFRICFGT  0.638 ± 0.013
174. SSGCVNILIDLF  0.638 ± 0.011
175. SSSRCPRLPLPS  0.6358 ± 0.0012
176. SLVAFAKMANFV  0.633 ± 0.044
177. SQMMLKQKFLRR  0.628 ± 0.024
178. SLLPLSTPPASP  0.624 ± 0.0079
179. SLSVPPRPSSPP  0.624 ± 0.017
180. SPWMSKNGQSSD  0.622 ± 0.02
181. SSPSSFLTLLFI  0.621 ± 0.069
182. SPPPPQEADYVV  0.62 ± 0.026
183. SSNLLFCSIFYV  0.6181 ± 0.0021
184. SPLPPPLPPFPP  0.6171 ± 0.0056
185. SRARPPLLPFPP  0.615 ± 0.061
186. SPPPSSSPPPSP  0.612 ± 0.03
187. SRNKLNSIIIEK  0.608 ± 0.046
188. SPSRHPSPPKPP  0.607 ± 0.021
189. SRGSSGHLVNLV  0.607 ± 0.049
190. SSPNPPRELGPY  0.607 ± 0.055
191. SPAASPVPLHPR  0.603 ± 0.15
192. SMFRNSWRKNKS  0.602 ± 0.012
193. SLSIFTSFLVLF  0.598 ± 0.021
194. SPPPPSRPTLPP  0.593 ± 0.011
195. SSPLWCFRLVFF  0.583 ± 0.015
196. SPWWAPPSPPYP  0.582 ± 0.015
197. SPTPPPPPPRPP  0.581 ± 0.018
198. SPLPRPHRGPPP  0.58 ± 0.054
199. SLRLFVPVYPPP  0.576 ± 0.078
200. SLLHGVFFWVLT  0.572 ± 0.013
201. SSFNSCQFVLSY  0.563 ± 0.011
202. SRQDLPKYVYLY  0.508 ± 0.016
